The record followed here is patent US20240301052A1 (LANOVA MEDICINES DEVELOPMENT, published 2024).

Like-named read-outs stand apart in the source and are kept apart here.

In general, EC50 refers to the concentration giving half of the maximal effect.

In test [1] the target is T1, human SLC34A2 (human, UniProt O95436 1-690).
T1 construct: whole, on cells; also called human solute carrier 34 A2; NaPi2b
T1 sequence (looked up): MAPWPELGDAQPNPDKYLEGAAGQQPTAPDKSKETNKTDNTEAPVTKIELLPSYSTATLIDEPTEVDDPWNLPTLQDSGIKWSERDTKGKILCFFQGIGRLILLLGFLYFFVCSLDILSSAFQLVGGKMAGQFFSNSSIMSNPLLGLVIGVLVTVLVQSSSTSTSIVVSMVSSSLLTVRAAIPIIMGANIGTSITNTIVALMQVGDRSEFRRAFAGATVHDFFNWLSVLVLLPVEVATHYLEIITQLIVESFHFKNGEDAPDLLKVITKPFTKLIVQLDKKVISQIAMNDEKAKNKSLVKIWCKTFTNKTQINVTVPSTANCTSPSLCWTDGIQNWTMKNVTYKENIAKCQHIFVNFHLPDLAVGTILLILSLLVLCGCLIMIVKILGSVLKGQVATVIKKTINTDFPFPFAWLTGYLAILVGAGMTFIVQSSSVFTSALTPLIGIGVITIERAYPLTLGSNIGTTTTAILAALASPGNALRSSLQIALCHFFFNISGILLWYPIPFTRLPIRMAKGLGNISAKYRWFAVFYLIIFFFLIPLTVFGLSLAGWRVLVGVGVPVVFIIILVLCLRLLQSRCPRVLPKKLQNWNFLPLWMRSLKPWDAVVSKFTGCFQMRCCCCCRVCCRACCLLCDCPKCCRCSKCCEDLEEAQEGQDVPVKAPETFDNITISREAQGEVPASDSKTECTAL
In words: FACS, OVCAR3 cells. The protocol:
(§1) In another testing, cell based binding of hu Abs on human SLC34A2 expressing cells were assessed using flow cytometry. Briefly, the HEK293/H_SLC34A2, OVCAR3 and RMG-1 cells were incubated with hu Abs. After incubation at 4° C. for 60 minutes, the cells were washed with FACS buffer twice, then stained with fluorescent conjugated secondary antibody at 4° C. for 30 minutes. After that the cells were washed twice and analyzed by flow cytometry.
Background: A flow cytometer gives signals particle by particle.

Test [2] has as its target T1, human SLC34A2. The test is described as follows: FACS, HEK293/human SLC34A2 cells. The protocol: as §1
For test [3], the target named is T1, human SLC34A2. In words: cell-based or functional assay.
Test [4] concerns the target T1, human SLC34A2. In words: FACS, RMG-1 cells. On the procedure: as §1
The target in test [5] is T1, human SLC34A2. In words: FACS, OVCAR3 cells. The source holds these as a separate data set.
Test [6] deals with T2, Rhesus SLC34A2 (Rhesus, UniProt F7HDA3 1-690).
T2 construct: whole, on cells
T2 sequence: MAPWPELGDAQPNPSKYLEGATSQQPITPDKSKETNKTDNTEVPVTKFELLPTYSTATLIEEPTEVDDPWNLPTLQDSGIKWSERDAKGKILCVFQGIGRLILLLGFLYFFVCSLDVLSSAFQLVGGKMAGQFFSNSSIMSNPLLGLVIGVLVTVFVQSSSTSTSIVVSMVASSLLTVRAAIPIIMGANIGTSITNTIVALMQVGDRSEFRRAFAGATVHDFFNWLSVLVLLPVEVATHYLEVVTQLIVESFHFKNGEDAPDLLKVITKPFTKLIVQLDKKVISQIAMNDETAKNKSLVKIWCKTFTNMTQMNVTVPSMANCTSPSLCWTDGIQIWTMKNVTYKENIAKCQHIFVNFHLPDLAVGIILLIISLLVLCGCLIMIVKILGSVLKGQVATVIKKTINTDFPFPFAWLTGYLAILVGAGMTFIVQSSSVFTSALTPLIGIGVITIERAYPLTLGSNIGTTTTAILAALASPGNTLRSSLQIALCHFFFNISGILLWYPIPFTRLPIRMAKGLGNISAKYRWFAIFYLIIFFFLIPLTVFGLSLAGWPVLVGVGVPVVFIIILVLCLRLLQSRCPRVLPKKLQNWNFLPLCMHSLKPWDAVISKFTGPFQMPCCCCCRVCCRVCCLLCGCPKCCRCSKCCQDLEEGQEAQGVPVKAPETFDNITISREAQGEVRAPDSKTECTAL
In words: FACS, HEK293/Rhesus SLC34A2 cells.

For a further test, the target named is T3, Cynomolgus SLC34A2 (Cynomolgus, UniProt A0A2K5UHY1 1-690).
T3 construct: whole, on cells; also called Cyno SLC34A2
T3 sequence: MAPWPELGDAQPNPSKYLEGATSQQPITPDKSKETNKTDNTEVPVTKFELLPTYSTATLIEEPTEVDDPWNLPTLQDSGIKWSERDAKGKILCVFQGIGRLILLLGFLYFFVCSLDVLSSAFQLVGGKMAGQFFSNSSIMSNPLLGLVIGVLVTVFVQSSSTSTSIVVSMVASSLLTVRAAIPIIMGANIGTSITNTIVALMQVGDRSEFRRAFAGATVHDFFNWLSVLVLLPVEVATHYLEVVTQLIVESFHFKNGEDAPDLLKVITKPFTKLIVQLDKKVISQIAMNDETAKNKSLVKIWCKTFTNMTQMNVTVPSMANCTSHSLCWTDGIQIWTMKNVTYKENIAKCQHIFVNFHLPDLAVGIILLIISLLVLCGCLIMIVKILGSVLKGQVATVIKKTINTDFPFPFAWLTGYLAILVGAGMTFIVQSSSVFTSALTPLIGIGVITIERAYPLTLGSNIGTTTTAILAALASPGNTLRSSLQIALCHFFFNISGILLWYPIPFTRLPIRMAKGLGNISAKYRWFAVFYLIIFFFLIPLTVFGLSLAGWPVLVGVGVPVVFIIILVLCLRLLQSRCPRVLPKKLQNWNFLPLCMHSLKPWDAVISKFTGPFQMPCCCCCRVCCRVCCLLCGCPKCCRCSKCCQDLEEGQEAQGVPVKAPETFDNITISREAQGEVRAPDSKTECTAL
The test is described as follows: FACS, cells expressing Cynomolgus SLC34A2.

For test [7], the target named is T1, human SLC34A2. In words: cell-based or functional assay. This is another data set of the same source.
Test [8] deals with T1, human SLC34A2. In words: cell-based or functional assay. This is another data set of the same source.
Test [9] concerns the target T1, human SLC34A2. In words: FACS, HEK293/human SLC34A2 cells. The protocol:
The PTM-derisked VH chains were first tested for their impact on target binding. Cell based binding of PTM Abs on human SLC34A2 expressing cells were assessed using flow cytometry. Briefly, the HEK293/H_SLC34A2 cells were incubated with PTM Abs (from 200 nM, 4 folds dilution, 8 points). After incubation at 4° C. for 60 minutes, the cells were washed with FACS buffer twice, then stained with fluorescent conjugated secondary antibody at 4° C. for 30 minutes. After that the cells were washed twice and analyzed by flow cytometry.
The source holds these as a separate data set.

The target in test [10] is T1, human SLC34A2. In words: FACS, RMG-1 cells. The protocol:
Based on the foregoing cell-based binding results, some of the chimeric antibodies were selected for further cell based binding on human SLC34A2 expressing cells using flow cytometry. RMG-1 cells were incubated with the selected chimeric antibodies (from 200 nM, 4 folds dilution, 8 points). After incubation at 4° C. for 60 minutes, the cells were washed with FACS buffer twice, then stained with fluorescent conjugated secondary antibody at 4° C. for 30 minutes. Afterwards the cells were washed twice and analyzed by flow cytometry.
This is another data set of the same source.

Test [11] concerns the target T1, human SLC34A2. In words: FACS, OVCAR3 cells. Summed up: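 Chimeric hIgG1 antibodies titrated from 200 nM (4-fold, 8 points) on OVCAR3 cells or HEK293 cells expressing human SLC34A2, 60 min at 4° C. Bound antibody detected with fluorescent secondary antibody (30 min, 4° C) and measured by flow cytometry.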
This is another data set of the same source.

Test [12] has as its target T1, human SLC34A2. The test is described as follows: FACS, OVCAR3 cells. The source holds these as a separate data set.
Test [13] concerns the target T2, Rhesus SLC34A2. In words: FACS, HEK293/Rhesus SLC34A2 cells. This is another data set of the same source.
In test [14] the target is T2, Rhesus SLC34A2. The test is described as follows: FACS, HEK293/Rhesus SLC34A2 cells. The protocol: Briefly, the Rhesus SLC34A2 expressing HEK293 engineering cells (HEK293/Rhesus_SLC34A2) were incubated with chimeric Abs (from 200 nM, 4 folds dilution, 8 points). After incubation at 4° C. for 60 minutes, the cells were washed with FACS buffer twice, then stained with fluorescent conjugated secondary antibody at 4° C. for 30 minutes. After that the cells were washed twice and analyzed by flow cytometry.
The source holds these as a separate data set.

Test [15] addresses T1, human SLC34A2. The test is described as follows: FACS, HEK293/human SLC34A2 cells. On the procedure:
Briefly, OVCAR3 cells or HEK293 cells expressing human SLC34A2 were incubated with chimeric antibodies (from 200 nM, 4 folds dilution, 8 points). After incubation at 4° C. for 60 minutes, the cells were washed with FACS buffer twice, then stained with fluorescent conjugated secondary antibody at 4° C. for 30 minutes. After that the cells were washed twice and analyzed by flow cytometry.
The source holds these as a separate data set.

B1: 91C9F1.p1.z4 hIgG1 (antibody, V domains shown)
VH: QVQLVQSGAEVKKPGSSVKVSCKASGFFFTEYIIHWVRQAPGQGLEWMGGIIPNNDVTNYKQNFRGRVTITADESTSTAYMELSSLRSEDTAVYYCARWRNAYYSAMDSWGQGTTVTVSS
VL: DIVVTQSPSSLSTSVGDRVTITCTASQDVGTAVAWYQQKPGKSPKLLIYWASTRHTGVPERFTGSGSGTDFTLTISSVQPEDVATYFCQQYRTSPLTFGVGTKLELK
notes: humanized hIgG1
For B1, the EC50 in the test with human SLC34A2 [1] amounted to 2.71 nM; in the test with human SLC34A2 [2], 1.12 nM; with human SLC34A2 [4] it was 3.22 nM; with human SLC34A2 [5], 1.12 nM; with Rhesus SLC34A2 [6] it was 3.2 nM. Moreover, the values for the Top with human SLC34A2 [1], with human SLC34A2 [2] and with human SLC34A2 [4] were 20200 MFI, 34600 MFI and 9820 MFI, respectively. For the same molecule, the “ADCC reporter EC50” value in the test with human SLC34A2 [3] was determined as 3.14 nM. The “ADCC reporter Top (MFI)” value with human SLC34A2 [3] turned out to be 137000 MFI. In addition, the “Top (MFI)” value was 34600 MFI with human SLC34A2 [5] and 6720 MFI with Rhesus SLC34A2 [6].

B2: 91C9F1.p1.z10 hIgG1 (antibody, V domains shown)
VH: QVQLVQSGAEVVKPGSSVKVSCKTSGFFFTEYIIHWVRQSPGQGLEWIGGIIPNNDVTNYKQNFRGRATLTADKSTSTAYMELSSLRSEDTAVYYCARWRNAYYSAMDSWGQGTTVTVSS
VL: DIQMTQSPSSLSTSVGDRVTITCTASQDVGTAVAWYQQKPGKSPKLLIYWASTRHTGVPERFSGSGSGTDFTLTISSLQPEDVATYFCQQYRTSPLTFGGGTKVEIK
notes: humanized hIgG1
For B2, the EC50 with human SLC34A2 [1] worked out at 3.96 nM; with human SLC34A2 [2] it was 2.32 nM; with human SLC34A2 [4], 3.91 nM; in the test with human SLC34A2 [5], 2.32 nM; with Rhesus SLC34A2 [6], 4.2 nM. The Top in the test with human SLC34A2 [1] stood at 22300 MFI; with human SLC34A2 [2], 38100 MFI; with human SLC34A2 [4], 9590 MFI. For the same molecule, the “ADCC reporter EC50” value with human SLC34A2 [3] turned out to be 2.37 nM. In addition, the “ADCC reporter Top (MFI)” value in the test with human SLC34A2 [3] is 138000 MFI. The results for the “Top (MFI)” value with human SLC34A2 [5] and with Rhesus SLC34A2 [6] were 38100 MFI and 9230 MFI, respectively.

B3: xi55E5B6D12 hIgG1 (antibody, V domains shown)
VH: QVQLQQSGAEVVNSGASVKMSCKASGYTFTTYNMHWVKQTPGQGLEWIGAIYPGNGDTSYNQRFKGKATFTADRSSGTAYMQLSSLPSEDSAVYYCARGGYANGALVDWGQGTLVTVSA
VL: DILMTQSHKFMSTSVGDRVTITCKASQDVGTAVAWYQNKPGQSPKLLIFWTSTRHTGVPDRFTGSGSGTDFTLTISNVQSEDLADYFCQQYSRQPLTFGPGTKLEIK
notes: chimeric, hIgG1
With B3, the EC50 was 2.7 nM in the test with Cynomolgus SLC34A2; 1.48 nM with human SLC34A2 [9]; 3.48 nM with human SLC34A2 [10]; 3.31 nM in the test with human SLC34A2 [11]; 5.1 nM with human SLC34A2 [12]; 4.9 nM with Rhesus SLC34A2 [13]. The EC50 with Rhesus SLC34A2 [14] came to 2.46 nM; with human SLC34A2 [15], 1.8 nM. Also, the “Top (MFI)” value is 3540 MFI in the test with Cynomolgus SLC34A2; 30400 MFI with human SLC34A2 [9]; 9500 MFI in the test with human SLC34A2 [10]; 42900 MFI in the test with human SLC34A2 [11]; 71400 MFI with human SLC34A2 [12]; 46400 MFI with Rhesus SLC34A2 [13]. The “Top (MFI)” value with Rhesus SLC34A2 [14] is 15900 MFI; in the test with human SLC34A2 [15] it was 115000 MFI. Also, the “ADCC reporter EC50” value in the test with human SLC34A2 [7] was 3 nM. Moreover, in the test with human SLC34A2 [7], the “ADCC reporter Top (MFI)” value came to 530000 MFI. Moreover, the “cytotoxicity EC50” value with human SLC34A2 [8] was 0.69 nM. Besides, the “cytotoxicity Inhibition %” value with human SLC34A2 [8] amounted to 96.7%.
